The values that follow come from paper PMC9668993, “CBP-HSF2 structural and functional interplay in Rubinstein-Taybi neurodevelopmental disorder” (Nature Communications, 2022).

The assay deals with T1, CBP-Full-HAT, full-catalytic domain of murine CBP (1096-1700), 6 His-tagged (murine, UniProt P45481 1096-1700).
T1 construct: also called CBP core catalytic domain; source: recombinant, purified
T1 sequence (looked up): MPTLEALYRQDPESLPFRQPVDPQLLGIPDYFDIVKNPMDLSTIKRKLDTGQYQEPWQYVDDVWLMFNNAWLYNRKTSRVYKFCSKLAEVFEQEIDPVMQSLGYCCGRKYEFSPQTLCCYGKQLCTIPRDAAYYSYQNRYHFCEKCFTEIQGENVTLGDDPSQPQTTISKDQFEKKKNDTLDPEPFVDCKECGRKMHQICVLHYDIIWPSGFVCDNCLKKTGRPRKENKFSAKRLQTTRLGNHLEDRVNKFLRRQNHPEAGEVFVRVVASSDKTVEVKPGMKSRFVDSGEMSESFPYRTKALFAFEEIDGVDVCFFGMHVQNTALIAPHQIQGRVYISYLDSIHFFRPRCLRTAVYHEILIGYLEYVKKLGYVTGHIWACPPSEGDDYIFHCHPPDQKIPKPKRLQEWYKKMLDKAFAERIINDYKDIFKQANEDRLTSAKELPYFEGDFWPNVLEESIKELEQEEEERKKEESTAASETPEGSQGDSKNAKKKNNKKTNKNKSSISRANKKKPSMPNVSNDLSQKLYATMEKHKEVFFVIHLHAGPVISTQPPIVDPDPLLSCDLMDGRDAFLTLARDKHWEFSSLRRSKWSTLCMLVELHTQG
The experiment in a line: BLI; Octet Red; biotinylated recombinant HSF2 immobilised at 100 nM on streptavidin biosensors in PBS; analytes diluted in PBS at 100 nM, association 600 s; Kd with a 1:1 stoichiometry model, global fit with Rmax unlinked by sensor. The note with it: both partners purified. On the technique in general: Biolayer interferometry detects binding as a change in optical thickness at a sensor tip.

B1: biotinylated recombinant full-length HSF2 (recHSF2) (natural protein, UniProt Q03933 1-536, looked up)
chain: MKQSSNVPAFLSKLWTLVEETHTNEFITWSQNGQSFLVLDEQRFAKEILPKYFKHNNMASFVRQLNMYGFRKVVHIDSGIVKQERDGPVEFQHPYFKQGQDDLLENIKRKVSSSKPEENKIRQEDLTKIISSAQKVQIKQETIESRLSELKSENESLWKEVSELRAKHAQQQQVIRKIVQFIVTLVQNNQLVSLKRKRPLLLNTNGAQKKNLFQHIVKEPTDNHHHKVPHSRTEGLKPRERISDDIIIYDVTDDNADEENIPVIPETNEDVISDPSNCSQYPDIVIVEDDNEDEYAPVIQSGEQNEPARESLSSGSDGSSPLMSSAVQLNGSSSLTSEDPVTMMDSILNDNINLLGKVELLDYLDSIDCSLEDFQAMLSGRQFSIDPDLLVDLFTSSVQMNPTDYINNTKSENKGLETTKNNVVQPVSEEGRKSKSKPDKQLIQYTAFPLLAFLDGNPASSVEQASTTASSEVLSSVDKPIEVDELLDSSLDPEPTQSKLVRLEPLTEAEASEATLFYLCELAPAPLDSDMPLLDS
modifications: biotinylated with EZ-Link NHS-PEG4-Biotin at a molar ratio biotin/protein (3:1)
notes: heat-shock factor 2, recombinant full-length protein, catalogue TP310751; also called recombinant HSF2; source: bought: Origen (TP310751)
In the case of B1, the Kd worked out at 1 nM.

The term Kd denotes the constant that tells how readily two partners part at equilibrium.
